In patent US20100216663A1:

Biological target: human IgE (human) (UniProt P01854)
Test: Biacore, human IgE on CM5 chip, sample protein in flow

Chain of human IgE (human) (P01854 other isoform, or with tags, fused parts or gaps): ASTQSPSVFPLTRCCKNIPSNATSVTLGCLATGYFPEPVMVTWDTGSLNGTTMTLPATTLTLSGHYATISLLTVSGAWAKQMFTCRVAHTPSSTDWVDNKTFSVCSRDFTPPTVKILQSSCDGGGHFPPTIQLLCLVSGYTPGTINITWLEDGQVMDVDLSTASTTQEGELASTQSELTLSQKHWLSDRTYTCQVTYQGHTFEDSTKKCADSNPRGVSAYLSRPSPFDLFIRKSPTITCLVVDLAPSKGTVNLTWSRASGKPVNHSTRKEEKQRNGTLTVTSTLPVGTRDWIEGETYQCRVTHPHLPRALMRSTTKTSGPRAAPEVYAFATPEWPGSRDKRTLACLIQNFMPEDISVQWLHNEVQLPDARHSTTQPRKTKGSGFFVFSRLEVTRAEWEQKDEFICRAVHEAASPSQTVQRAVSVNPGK

Substance: recombinant human FcERI protein (from UniProt P12319 26-205) (receptor)
- Kd: 0.45 µM
